Measurements: PMC9972897 (Science immunology, 2023)
Where two headings read alike, the source gives them in different places.

Key:
[1] = target: SARS-CoV-2 S-2P ectodomain trimer (ancestral) (SARS-CoV-2 (ancestral, MN908947), stabilised)
[2] = target: T1, SARS-CoV-2 fusion peptide (FP) coldspot peptide, 812-831 (SARS-CoV-2 (ancestral), biotin-Ahx at the N-terminus; C-terminal amidation)
[3] = target: T2, SARS-CoV-2 S (ancestral), C-terminally truncated, expressed on 293T cells (SARS-CoV-2 (ancestral, Wuhan-Hu-1), UniProt P0DTC2); experiment: cell-based or functional assay
[4] = target: T2, SARS-CoV-2 S (ancestral), C-terminally …; experiment: flow cytometry on cells; details: one partner purified
[5] = target: T1, SARS-CoV-2 fusion peptide (FP) coldspot …; experiment: crystal structure; details: both partners purified
[6] = target: SD1-RBD of SARS-CoV-2 S (ancestral), aa 319-591 (SARS-CoV-2, ancestral (Wuhan-Hu-1; …, UniProt P0DTC2); experiment: SPR; details: both partners purified

Binder | binding result [1] | binding result [2] | further results
hr2.086 (antibody, V domains shown) VH: EVQLLESGGGLVQPGGYLRLSCAASGFTFSSYAMSWVRQAPGKGLEWVSVISGGGGSAYYADSVKGRFTISRDNSKNTLYLQMNSLRAEDTAVYYCAKIGMILVFDYWGQGTLVTVSS VL: EIVLTQSPGTLSLSPGERATLSCRASQSVSNNYLAWYQQKPGQAPRLLISGASSRATGIPDRFSGSGSGTDFTLTISRLEPEDFAVYYCQQYGSSPPTFGQGTKVEIK | binds |  | 
fp.010 (antibody, V domains shown) VH: EVQLLESGGGLVQPGGSLRLSCAASGFTFSTYAMNWVRQAPGKGLEWVSAISSSGLSTQYADSVRGRFTISRDTSKNTLYLHMNSLRAGDTAVYYCAKVEYSGYDPRGPFDSWGQGTLVTVSS VL: DIQMTQSPSTLSASVGDRVTITCRASQSISGWLAWYQQKPGRAPKLLIYKASSLERGVPSRFSGSGSGTEFTLTISSLQPDDFATYYCQEYSSYPLCTFGQGTKLEIK |  | binds | 
hr2.016 monoclonal antibody (IgG) (antibody, V domains shown) VH: EVQLLESGGGLVQPGGSLRLSCAASGFMFSKYAMTWVRQTPGKGLEWVSVISGGGGSTYYADSVKGRFTISRDNSKNTLYLQMNSLRAEDTAVYYCAKLLVVFVIDYWGQGALVTVSS VL: EIVLTQSPGTLSLSPGERATLFCRASQSVSSNLAWYQQKPGRAPRLLISGASSRATGIPDRFSGSGSGTDFTLTISRLEPEDFAVYYCQQYGSSPPTFGQGTKVEIK |  |  | IC50 of neutralisation of SARS-CoV-2 pseudovirus [3]: 0.01 µg/mL; fold increase of binding (gMFI) with soluble ACE2 [4]: 2.3 fold
hr2.094 (antibody, V domains shown) VH: EVQLVESGGGLVQPGGSLRLSCAASGFTFSTFWMTWVRQAPGKGLEWVANIKSDGSEKYYVDSVKGRFTISRDNAKNSLYLQMNSLRAEDTAVYYCATWFGLHWGQGTLVTVSS VL: DIVMTQSPDSLAVSLGERASINCKSSQTVLYSSNNKNYLAWYQQKPGQPPKLLIHWASTRDSGVPDRFSGSGSGTDFTLTISSLQAEDVAVYYCQQYHRIPWTFGRGTKVEIK | binds |  | 
hr2.090 (antibody, V domains shown) VH: EVQLLESGGGLVQPGGSLRLSCAASGVTFSRYAMSWVRQAPGKGLEWVSTISGGGGGTYYADSVKGRFTISRDNSKNTLYLQMNSLRAEDTAVYYCATLLTVPGPYYFEYWGQGTLVTVSS VL: EIVLTQSPGTLSLSPGERATLSCRASQSVSSSYLAWYQQKPGQAPRLLIYGASSRATGIPDRFSGSGSGTDFTLTISRLESEDFAVYYCQHSRFTFGPGTRVDIK | binds |  | 
fp.004 (antibody, V domains shown) VH: VQLVESGGGVVQPGTSLRLSCVASGFTFSNYAMHWVRQAPGKGLEWVAIISFDTRNTASAASVKGRFNISRDNSKNSLYLQMNSLRPEDTGVYYCARDLFLSDYDSRGYDPITGGFDCWGQGTLVTVSS VL: EIVMTQSPAALSVSPGEGATLSCRASQSVGSRLAWYQQKLGRPPRLLIYGASTRATGIPARFSGSGSGTEFTLTISSLQSEDFAVYYCQQYNDWPLLTFGGGTKVKIK | binds | binds | 
fp.007 monoclonal antibody (IgG) (antibody, V domains shown) VH: EVQLVESGGGLVKPGGSLRLSCAGTGFIFSDAWMTWVRQAPGKGLEWVGRIKSKADGGTTDYAAPVKGRFTISRDDSKNTLYLEINSLKTEDTAVYYCTTGRSRYCIGAVCYYFDHWGQGTLVTVSS VL: not shown |  |  | binding result [4]: binds
hr2.023 monoclonal antibody (IgG) (antibody, V domains shown) VH: QVQLVQSGAEVKKPGASVKVSCRASENIFSDSYLHWVRQAPGQGLEWMGIITPSGDKTFYAQQFQGRLTMTRDTPTNTLHMDLRGLTSADTAIYYCARQATKGGWDYWGQGTLVTVSS VL: EIVLTQSPGTLSLSPGESATLSCRASQSVTRNYLAWYQQQPGQAPRLLIYGASNRATGVPDRFSGSGSGTDFTLTISRLEPEDFAVYYCQQYGSSPPTFIFGPGTKVDIK |  |  | fold increase of binding (gMFI) with soluble ACE2 [4]: 2.4 fold
fp.001 (antibody, V domains shown) VH: VQLVESGGGVVQPGRPLRLSCSGSGFIFSNYAMHWVRQAPGKGLEWVAIISFDARNKRYADSVEGRFTISRDNSKNILYLQMNSLRLEDSAVYFCARDLFLSDYDNGVYDPTRGGFDYWGQGTLVTVSS VL: EIVMTQSPATLSLSPGERATLSCRASQSVNNRLAWYQQKLGQPPRLLISGASTRATGIPARFTGSGSGTEFTLTISSLQSEDFAVYYCQQYHDWPLLSFGGGTKVEIK | binds | binds | 
fp.003 (antibody, V domains shown) VH: VQLVESGGGVVQPGTSLRLSCTASGFSFSNYAMHWVRQAPGKGLEWVAIISFDTRNKEFADSVKGRFSISRDNSKNSLNLQMNSLRPEDTGVYYCARDLFLSDYDSRGYEPSRGGFDYWGQGTLVTVSS VL: EIVMTQSPATLSVSPGERATLSCRASQSVSSSLAWYQQKLGQPPRLLIYGASTRATGIPARFSGSGSGTEFTLTISSLKSEDSAVYYCQQYNDWPLLSFGGGTKVEIK | binds | binds | 
fp.011 (antibody, V domains shown) VH: EVQLLESGGGLVQPGGSLRLSCAGSGFTFNNYAMTWVRQAPGRGLEWVSAISGSGGSSHYADSVKGRFTITRDNSKNTLYLQMNSLRAEDTAVYYCAFIDYYSGWSYYYGLDVWGQGTTVTVSS VL: EIVLTQSPATLSLSPGERATLSCRASQGVRTYVAWYQQKPGQAPRLLIYDASNRATGIPARFSGSGSGTDFTLTISSLEPEDFAVYYCQQRYNWPLCSFGQGTKLEIK |  | binds | 
fp.002 (antibody, V domains shown) VH: VQLVESGGGVVQPGTSLRLSCAGSGFNFDNYAIHWVRQAPGQGLEWVAIISYEARNKKYAGSVTGRFSISRDNSKSMVYLQMDSLRGEDTAVYYCARDLFLSDYDRSGYDPTRGGFDLWGQGTLVTVSS VL: EIVMTQSPATLSVSPGERATLSCRASQSVSSSLAWYQHKLGQAPRLLIYGASTRATGIPGRFSGSGSGTEFTLTISSLQSEDVAIYYCQQYGDWPLVTFGGGTKVEIK | binds | binds | 
fp.006 Fab (Fab, V domains shown) VH: EVQLVESGGGVVQPGGSLRLSCAASGFNFNNYALHWVRQAPGKGLEWVAIISYEARNKKYGVSVMGRFSISRDNSKSIMYLEMNSLRVEDTGVYYCARDLFLSDYDRSGYDPTRGGFDHWGQGTLVTVSS VL: EIVMTQSPATLSVSPGERATLSCRASQSVSSSLAWYQHRFGQAPRLLISGASTRATGIPGRFSGSGSGTEFTLTISSLQSEDVAVYYCQQYGDWPLVTFGGGTKVEIK |  |  | binding result [5]: binds
fp.009 (antibody, V domains shown) VH: VQLVESGGGVVQPGTSLTLSCEASGFTFSNYAMHWVRQAPGKGLEWVAIISFDTRNKKFAGSVQGRFSISRDNAKNSIYLQMNNLRPEDTGIYYCARDVFLSDYDSRGFDRTRGGFDYWGQGTLVTVSS VL: EIVMTQSPATLSVSPGEKATLSCRASESVGSSLAWYQQKLGQAPRLLIYGASTRATGIPARFSGSGSGAEFTLTISSLQSEDFAIYYCQQYGDWPLLTFGGGTKVEIK | binds | binds | 
fp.008 (antibody, V domains shown) VH: VQLVESGGGVVQPGRSLRLSCRASGFRFNNYAMHWVRQAPGKGLEWVAIISYEARNEKYAASVKGRFSISRDNAKNTLYLQMNSLRPEDTAIYYCARDVFLSDYDQSGYDVTRGGFDYWGQGTLVTVSS VL: EIVMTQSPATLSVSPGESATLSCRASQSVSSSLAWYQHKFGQAPRLLIYGASTRATGIPDRFSGSGSGMEFTLTISSLQSEDVAIYYCQQYGDWPLVTFGGGTKVEIK | binds | binds | 
fp.005 (antibody, V domains shown) VH: VQLVESGGGVVQPGNSLRLSCAASGFRFNNYAMHWVRQAPGKGLEWVAIISYEARNEKYADSVKGRFSISRDNAKNTLYLQMNSLRADDTGVYYCARDLFLSDYDTSGYDRTRGGFDYWGQGALVTVSS VL: EIVMTQSPATLSVSPGERATLSCRASQSVSNGLAWYQHRFGQPPRLLIYGASTRATGIPTRFSGSGSGTEFTLTISSLQSEDFAVYYCQQYDDWPLITFGGGTKVEIK | binds | binds | 
fp.006 monoclonal antibody (IgG) (antibody, V domains shown) VH: EVQLVESGGGVVQPGGSLRLSCAASGFNFNNYALHWVRQAPGKGLEWVAIISYEARNKKYGVSVMGRFSISRDNSKSIMYLEMNSLRVEDTGVYYCARDLFLSDYDRSGYDPTRGGFDHWGQGTLVTVSS VL: EIVMTQSPATLSVSPGERATLSCRASQSVSSSLAWYQHRFGQAPRLLISGASTRATGIPGRFSGSGSGTEFTLTISSLQSEDVAVYYCQQYGDWPLVTFGGGTKVEIK |  |  | IC50 of neutralisation of SARS-CoV-2 pseudovirus [3]: 0.737 µg/mL; fold increase of binding (gMFI) with soluble ACE2 [4]: 5.8 fold
sd1.040 monoclonal antibody (IgG) (antibody, V domains shown) VH: QVQLVQSGAEVKKPGASVKVSCKASGYTFTSFYIHWVRQAPGQGLEWMGIIDPSGGSTSYPQKFQGRVTMTRDTSTSTVYMDLSSLRSEDTAVYYCTRDGSAGDNSWFDPWGQGTLVTVSS VL: not shown |  |  | IC50 of neutralisation of SARS-CoV-2 pseudovirus [3]: 0.245 µg/mL
sd1.040 Fab (Fab, V domains shown) VH: QVQLVQSGAEVKKPGASVKVSCKASGYTFTSFYIHWVRQAPGQGLEWMGIIDPSGGSTSYPQKFQGRVTMTRDTSTSTVYMDLSSLRSEDTAVYYCTRDGSAGDNSWFDPWGQGTLVTVSS VL: not shown |  |  | Kd [6]: 4.2 nM
